First the molecules themselves.
T1: NiVM G head domain protein (residues 176-602) (Nipah virus, Malaysia strain (NiVM), UniProt Q9IH62 176-602)
T1 sequence: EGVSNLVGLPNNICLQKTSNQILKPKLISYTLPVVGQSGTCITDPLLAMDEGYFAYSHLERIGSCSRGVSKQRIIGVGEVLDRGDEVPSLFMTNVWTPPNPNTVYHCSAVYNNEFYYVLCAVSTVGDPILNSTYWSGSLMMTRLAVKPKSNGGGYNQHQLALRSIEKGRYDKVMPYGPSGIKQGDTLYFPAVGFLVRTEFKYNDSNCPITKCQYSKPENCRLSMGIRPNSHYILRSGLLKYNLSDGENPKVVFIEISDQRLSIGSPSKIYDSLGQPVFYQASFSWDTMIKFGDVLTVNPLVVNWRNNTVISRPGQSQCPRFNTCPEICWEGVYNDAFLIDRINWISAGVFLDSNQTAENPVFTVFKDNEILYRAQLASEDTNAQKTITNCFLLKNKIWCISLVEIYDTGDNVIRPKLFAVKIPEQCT

B1: mAb S1E2 (antibody, V domains shown)
VH: QMQLQESGPGLVKPSQSLSLTCSVTGYSITSGYYWNWIRQFSGNKLEWMGYINHDGSKNYNPSLKNRISITRDTSKNQFFLKLNSVTTEDTATYYCARDYGSYYYPMDYWGQGTSVTVSS
VL: EIVLTQSPPIMSASPGEKVTITCSASSSVTFMHWFQQKPGTSPKLWIFSTSNLASGVPARFSGSGSGTSYSLTISRMEAEDAATYYCQQRSSYPFTFGSGTKLEIK
B2: mAb LN3D3 (antibody, V domains shown)
VH: EVKLEESGPELVKPGASVKMSCKASGYTFTNYVMHWVKQKPGQGLEWIGYVNPYNDGTQYNEKFRDKATLTSDKSSSTVYMELNSLTSEDSAVYYCTRGDYPYWVFEVWGAGTTVTVSS
VL: EIQMTQSPATLSVTPGDSVSLSCRASQSISNNLHWYQQKSHESPRLLIKYASQSISGIPSRFSGSGSGTDFTLSINNLETEDFGMYFCQHSDSWPFTFGSGTKLEIK
B3: mAb S2B10 (antibody, V domains shown)
VH: QMQLQESGPGLVKPSQSLSLTCTVTGYSITSDYAWNWIRQFPRNKLEWMGFITYSGSTSYNPSLKSRISLTRDTSKNQFFLQLSSVTTEDTATYYCARSGANWDWFAYWGQGTLVTVSA
VL: DIQMTQSPASLAVSLGQRATISCRASESVDNYGNSFMHWYQQKPGQPPKLLIYRASKLESGIPARFSGSGSRTDFTLTINPVEADDVATYHCQQSNEDPWTFGGGTKLEIK
B4: mAb LN1F9 (antibody, V domains shown)
VH: EVKLVESGGGLVKPGGSLKLSCAASGFSFRNYAMSWVRQSPEKRLEWVAEVSSGGGYTYYPDTVTGRFTISRDNAKNILYLEMSSLRSEDTAMYYCTRDPDSSGYLAWFAYWGQGTLVTVSA
VL: DILLTQSPASLSASVGETVTITCRASENINSYLAWYQQKQGKSPQLLVYNAKTLAEGVPSRFSGSGSDTQFSLKINTLQPEDFGTYYCQHHSGTPYTFGGGTKLEIK
B5: human ephrin-B2 (residues 27-167) (receptor)
chain: SIVLEPIYWNSSNSKFLPGQGLVLYPQIGDKLDIICPKVDSKTVGQYEYYKVYMVDKDQADRCTIKKENTPLLNCAKPDQDIKFTIKFQEFSPNLWGLEFQKNKDYYIISTSNGSLEGLDNQEGGVCQTRAMKILMKVGQD
B6: S1E2 Fab (Fab, V domains shown)
VH: B1 VH
VL: B1 VL
B7: LN3D3 Fab (Fab, V domains shown)
VH: B2 VH
VL: B2 VL
B8: S2B10 Fab (Fab, V domains shown)
VH: B3 VH
VL: B3 VL
B9: LN1F9 Fab (Fab, V domains shown)
VH: B4 VH
VL: B4 VL

The target in the first assay is T2, NiVM G head domain protein (residues 176-602) (Nipah virus, Malaysia strain (NiVM), UniProt Q9IH62). The assay is described as follows: BLI. (Biolayer interferometry detects binding as a change in optical thickness at a sensor tip.)
For the molecule B1, the binding result is given as “binds”.

Consider B2, for which the binding result was “binds”.

B3: the binding result is reported as “binds”.

On to B4, for which the binding result is listed as “binds”.

Another assay deals with T1, NiVM G head domain protein (residues …). Description: BLI.
B5: the binding result is given as “binds”.

In another assay the target is NiVM G ectodomain (residues 96-602) (Nipah virus, Malaysia strain, …, UniProt Q9IH62). The assay is described as follows: ELISA.
Regarding B1, the binding result is recorded as “binds”.

In the case of B2, the binding result is “binds”.

Turning to B3, the binding result is reported as “binds”.

For B4, the binding result is on record as “binds”.

A further assay concerns the target LayV G head domain (residues 176-625) (Langya virus, GenBank UUV47206.1, UniProt A0AAX3C924). The assay is described as follows: ELISA. For orientation: ELISA stands for enzyme-linked immunosorbent assay.
B1: the binding result was “no binding (tested: 1 μg/mL)”.

As to B2, the binding result was “no binding (tested: 1 μg/mL)”.

In the case of B3, the binding result is listed as “no binding (tested: 1 μg/mL)”.

Consider B4, for which the binding result is “no binding (tested: 1 μg/mL)”.

The target in a further assay is MojV G head domain (residues 176-625) (Mojiang virus, GenBank YP_009094095.1, UniProt W8TIR7). The assay is described as follows: ELISA.
For the molecule B1, the binding result was “no binding (tested: 1 μg/mL)”.

For B2, the binding result was “no binding (tested: 1 μg/mL)”.

As for B3, the binding result is listed as “no binding (tested: 1 μg/mL)”.

Turning to B4, the binding result was “no binding (tested: 1 μg/mL)”.

A further assay deals with T2, NiVM G head domain protein (residues …). The assay is described as follows: cryo-EM structure.
B6: the binding result was “binds”.

As to B7, the binding result was “binds”.

Consider B8, for which the binding result is “binds”.

The target in the next assay is deglycosylated NiVM G head domain without the His-tag (residues 176-602) (Nipah virus, Malaysia strain, …, UniProt Q9IH62). Description: crystal structure.
B9: the binding result was “binds”.

These data come from paper doi:10.1101/2025.02.16.638571 (bioRxiv, 2025).
